Data: paper PMC10573625, “Interaction of VvDELLA2 and VvCEB1 Mediates Expression of Expansion-Related Gene during GA-Induced Enlargement of Grape Fruit”

T1: VvCEB1 (UniProt I6QS36 1-270)
T1 sequence: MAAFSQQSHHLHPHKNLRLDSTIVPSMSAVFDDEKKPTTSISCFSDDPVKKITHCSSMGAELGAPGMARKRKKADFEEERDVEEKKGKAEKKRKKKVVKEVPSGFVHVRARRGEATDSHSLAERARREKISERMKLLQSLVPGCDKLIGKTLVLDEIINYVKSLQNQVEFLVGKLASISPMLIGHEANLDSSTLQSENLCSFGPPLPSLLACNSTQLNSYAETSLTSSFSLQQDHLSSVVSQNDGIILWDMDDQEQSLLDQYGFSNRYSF


Experiments:
[1] = biological target: T1, VvCEB1; test: EMSA; Binding buffer, salt, pH and temperature not stated; Beyotime chemiluminescent biotin-labelled nucleic acid detection kit; probes annealed at 72 C for 30 min; conditions: protein: recombinant; tags: His (pET-30a(+)); chain copies: 2; label: 5'-biotin; blunt
[2] = biological target: T1, VvCEB1; test: EMSA; band disappeared completely with mutated probe; Binding buffer, salt, pH and temperature not stated; Beyotime chemiluminescent biotin-labelled nucleic acid detection kit; probes annealed at 72 C for 30 min; conditions: protein: recombinant; tags: His (pET-30a(+)); chain copies: 2; blunt
[3] = biological target: T1, VvCEB1; test: competition; unlabelled competitor against biotin probe N1; band significantly weakened; Binding buffer, salt, pH and temperature not stated; Beyotime chemiluminescent biotin-labelled nucleic acid detection kit; probes annealed at 72 C for 30 min; conditions: protein: recombinant; tags: His (pET-30a(+)); chain copies: 2; 5' overhang 1 nt as printed
[4] = biological target: T1, VvCEB1; test: competition; unlabelled competitor against biotin probe N4; band significantly weakened; Binding buffer, salt, pH and temperature not stated; Beyotime chemiluminescent biotin-labelled nucleic acid detection kit; probes annealed at 72 C for 30 min; conditions: protein: recombinant; tags: His (pET-30a(+)); chain copies: 2; blunt

Binder | binding result [1] | binding result [2] | also measured
PVvEXPA8-biotin (dsDNA) DNA 1: TGGTAGTCTAACTTGAACAAAACATATGCATGTGCAG DNA 2: CTGCACATGCATATGTTTTGTTCAAGTTAGACTACCA | binds | – | –
PVvEXPA8-mut (dsDNA) DNA 1: TGGTAGTCTAACTTGAACAAAACATATGCATTTTCAG DNA 2: CTGAAAATGCATATGTTTTGTTCAAGTTAGACTACCA | – | no binding | –
PVvEXPA8 (unlabelled competitor) (dsDNA) DNA 1: TTGGTAGTCTAACTTGAACAAAACATATGCATGTGCAG DNA 2: CTGCACATGCATATGTTTTGTTCAAGTTAGACTACCA | – | – | binding result [3]: binds
PVvEXPA11-biotin (dsDNA) DNA 1: CTACTTGCAGAGATCACATGTGAGGCTGTTGCATT DNA 2: AATGCAACAGCCTCACATGTGATCTCTGCAAGTAG | binds | – | –
PVvEXPA11-mut (dsDNA) DNA 1: CTACTTGCAGAGATCACATTTTAGGCTGTTGCATT DNA 2: AATGCAACAGCCTAAAATGTGATCTCTGCAAGTAG | – | no binding | –
PVvEXPA11 (unlabelled competitor) (dsDNA) DNA 1: CTACTTGCAGAGATCACATGTGAGGCTGTTGCATT DNA 2: AATGCAACAGCCTCACATGTGATCTCTGCAAGTAG | – | – | binding result [4]: binds
